Source: US10077436B2, “Beta-glucosidase enzymes for increased biomass saccharification” (Edeniq, Inc., priority 2013, dated 2018)
Substitutions are numbered along the chain they refer to. Names may count otherwise.

B1: yEdQ885-BG: improved (modified) in-house beta-glucosidase mutant secreted by yeast strain yEdQ885 (protein)
chain: MRFTLIEAVALTAVSLASADELAYSPPYYPSPWANGQGDWAQAYQRAVDIVSQMTLDEKVNLTTGTGWELELCVGQTGGVPRLGVPGMCLQDSPLGVRDSDYNSAFPAGMNVAATWDKNLAYLRGKAMGQEFSDKGADIQLGPAAGPLGRSPDGGRNWEGFSPDPALSGVLFAETIKGIQDAGVVATAKHYIAYEQEHFRQAPEAQGFGFNISESGSANLDDKTMHELYLWPFADAIRAGAGAVMCSYNQINNSYGCQNSYTLNKLLKAELGFQGFVMSDWAAHHAGVSGALAGLDMSMPGDVDYDSGTSYWGTNLTISVLNGTVPQWRVDDMAVRIMAAYYKVGRDRLWTPPNFSSWTRDECGYKYYYVSEGPFEKVNQYVNVQRNHSELIRRIGADSTVLLKNDGALPLTGKERLVALIGEDAGSNPYGANGCSDRGCDNGTLAMGWGSGTANFPYLVTPEQAISNEVLKHKNGVFTATDNWAIDQIEALAKTASVSLVFVNADSGEGYINVDGNLGDRRNLTLWRNGDNVIKAAASNCNNTIVVIHSVGPVLVNEWYDNPNVTAILWGGLPGQESGNSLADVLYGRVNPGAKSPFTWGKTREAYQDFLVTEPNNGNGAPQEDFVEGVFIDYRGFDKRNETPIYEFGYGLSYTTFNYSNLEVQVLSAPAYEPASGETEAAPTFGEVGNASDYLYPSGLQRITKFIYPWLNGTDLEASSGDASYGQDSSDYLPEGATDGSAQPILPAGGGPGGNPRLYDELIRVSVTIKNTGKVAGDEVPQLYVSLGGPNEPKIVLRQFERITLQPSEETKWSTTLTRRDLANWNVEKQDWEITSYPKMVFVGSSSRKLPLRASLPTVH
modifications: synthetic mutant beta-glucosidase (BG), BG acid/base mutant #8, yEdQ885 -> Y363C/Y375F/A446A/V498V/G510G/Y560Y/Y610F
B2: yEdQ745-BG: wild type Aspergillus niger beta-glucosidase (Accession CAB75696.1, SEQ ID NO:2) secreted by yeast strain yEdQ745 (protein)
chain: B1 chain with C363Y, F375Y, F610Y
modifications: Aspergillus niger; wild type beta-glucosidase (BG)

Key:
Type in all cases: biochemical
[1] = BG activity assay / kinetics using pNPG substrate; conditions: all conditions except initial glucose 36 g/L
Method: BG activity assay using pNPG is one of the two commonly used standard assays to measure BG activity, which utilizes hydrolysis of p-nitrophenyl-β-D-glucopyranoside (pNPG) by BG into a yellow colored product, p-nitrophenol (pNP), that has a strong absorbance at 405 nm. One pNPG unit is defined as the amount of enzyme that produces 1 μmol of pNP per min. Briefly, to determine BG activity, 25 μL of diluted enzyme in 200 mM sodium acetate buffer (pH 5.0) was mixed with 25 μL of the same buffer and 25 μL of RO water (or glucose solution for the kinetic study) and the mixture was preincubated at 50° C. for 5 min. […] The reaction was then terminated by adding 100 μL of 0.25 M sodium carbonate, and the amount of pNP produced was determined by measuring absorbance at 405 nm using a predetermined calibration curve. […]
To determine the kinetic properties, a competitive inhibition mechanism was hypothesized as proposed in the literature (Chauve et al, 2010; Krogh et al, 2010). […] The turnover number, Kcat, can be calculated by Equation (2), where [Et] is the total amount of enzyme.
Conventionally, linearization methods can be used to determine the kinetic parameters based on Equation (1). […] Thus, Vmax, Km and Ki can be determined simultaneously from this fitting process, and Km/Ki can then be calculated. Kcat can be obtained by Equation (2) and Kcat/Km can be calculated accordingly.

[2] = BG (cellobiase) activity assay / kinetics using cellobiose substrate, HPLC
Method: BG activity assay using cellobiose is the other standard assay to measure BG or cellobiase activity, which utilizes hydrolysis of cellobiose by cellobiase into two molecules of glucose, the last step of enzymatic hydrolysis of cellulose. One cellobiase unit (commonly termed as CBU) is defined as the amount of enzyme that converts […] of cellobiose or produces 2 μmol of glucose per min. Briefly, to determine BG activity, 25 μL of diluted enzyme in 50 mM citrate buffer (pH 4.8) equilibrated to 50° C. was mixed with 25 μL cellobiose (or cellobiose/glucose mixture for the kinetic study) to start the reaction. The mixture was incubated at 50° C. for 10 min, and the reaction was terminated by incubating the mixture at 99° C. for 5 min. Different methods are available to measure the glucose produced in the assays. For the kinetic study, HPLC was used. […]
The specific activity used here was determined by the initial velocity approach that is required by implementing Michaelis-Menten model (Copeland, 2000). The specific activity was determined by measuring consumption of cellobiose in the first 10 min of reaction and was expressed as μmol min^−1 mg^−1, where mg^−1 means per mg of total protein. The relative activity was determined based on the maximum activity obtained in the absence of initial glucose inhibition.

[3] = BG supplementation of Celluclast in 48-hour saccharification of filter paper; conditions: for optimal CBU/FPU ratio (optimal BG dosage): 10% solid loading, 20% Celluclast loading
Method: Experimental conditions in this example using filter paper substrate was 10% solid loading and 20% Celluclast loading based on glucan content. Different BG dosage based on CBU:FPU (BG activity/total cellulase activity) was tested.
Enhancement of glucose release (Equation 5) and lift of sugar conversion (Equation 6) was compared among various BGs at the optimal dosage over time in FIG. 8.

[4] = BG supplementation of commercial cellulase preparations in corn stover saccharification; conditions: added to commercial enzyme preparation, 50° C.
Source text: In this experiment, 10% CTecII per gram glucan and 0.5% HtecII per mass solids was used as a control level for high saccharification of pretreated biomass. The relatively low enzyme dose of 3% Genencor® Trio per gram glucan was used as a base enzyme level to observe increases in saccharification from supplementation with BG enzymes. Enzyme doses of 0.5%, 1% and 2% of HtecII were used in a parallel set of reactions to likewise observe increases in saccharification from supplementation with concentrated extract from yEdQ745, yeast expressing wild type BG and another set of samples supplemented with commercial BG. • BG were used from two sources: wild type BG (yEdQ745) and commercial BG (Nozyme product SP-188). • Commercial cellulase preparations: Novozymes CtecII, Novozymes HtecII and Genencor® Trio. • Biomass used for the experiment: For each reaction 3 gms from Run 177 corn stover at 10% final solid concentration. • BG addition: 2 mL of wild type BG concentrated from yEdQ745 (11× concentrated) was added to the respective reaction. • Commercial BG: 1 uL/gm of biomass • Buffer: sodium citrate buffer pH5.0 was used for the reaction • Saccharification temperature: 50° C./24 and 48 hours.

Molecule | specific activity towards pNPG, comparison [1] | specific activity towards cellobiose, comparison ([2]; absence of glucose inhibition) | optimal CBU/FPU ratio (optimal BG dosage) [3] | performance in enhancing saccharification, comparison ([3]; optimal BG dosage) | enhancement of sugar release ([3]; optimal BG dosage, up to 48 h) | lift of sugar conversion ([3]; optimal BG dosage, up to 48 h) | specific activity towards cellobiose, comparison ([2]; all conditions tested) | effect of BG supplementation on glucose release / glucan to glucose conversion [4]
B1 | higher specific activity towards pNPG than both yEdQ745-BG (wild type) and S-BG | higher specific activity towards cellobiose than both yEdQ745-BG (wild type) and S-BG | 2 | outperformed the other three BGs | more than 50% | more than 13% | – | –
B2 | – | – | 1 | – | – | – | the lowest | dramatically increased
